From the emibetuzumab library of Makowski et al. (2022)

B1: VH:VL chains; a variant is named by its letters at X, in order (parent)
chain 1: QVQLVQSGAEVKKPGASVKVSCKASGYTFTDYXMHWVRQAPGQGLEWMGXVNPNXXXTTYNQKFEGRVTMTTDTSTSTAYMELRSLRSDDTAVYYCARXNXLDXWGQGTTVTVSS
chain 2: DIQMTQSPSSLSASVGDRVTITCSVSSSVSSIYLHWYQQKPGKAPKLLIYSTSNLASGVPSRFSGSGSGTDFTLTISSLQPEDFATYYCQVYSGYPLTFGGGTKVEIK

Variants of: B1
Experiment: yeast display scFab, FACS + sequencing
Method in brief: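 Heavy-chain CDR mutant scFab yeast surface library, FACS-sorted after labelling with biotinylated ovalbumin (260 μg/mL in PBSB, 3 h, room temperature) or soluble membrane proteins (130 μg/mL, 20 min on ice), plus anti-Myc. Gates collected the top 25% and bottom 10% of binders, and samples from two replicates were deep sequenced. Non-specific binding call: a sequence was positive if found in ≥3 of 4 positive samples (membrane protein and ovalbumin pooled) and no negatives, and negative by the converse rule.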

Variant	non-specific binding call
FGRGTSGD	binds
DKEGGDVV	no binding
DKEGGDVA	no binding
DKEGGDVD	no binding
DGGTSYSV	no binding
VKAGDAVY	no binding
VGGTSSSS	no binding
VGGTSSSV	no binding
VGGTSSSA	no binding
VKEKGDGS	no binding
VKAGDAWS	no binding
SGRGNSVD	no binding
YGRGNSGD	no binding
DKEGGSGV	no binding
DKEGGFGV	no binding
AKAGSYGV	binds
SGKGGSAY	binds
FGRGGVGD	binds
VKAGSAAA	no binding
FKEGGSAA	binds
FKARDSGD	binds
DGGTGDVF	no binding
VKEGGSSA	no binding
SGRGNDAV	no binding

Variant	non-specific binding call
SGRGNAGD	no binding
YKAGGALY	binds
YKAGGALD	binds
YKAGGALA	binds
YKARGSLV	binds
YKARGSLY	binds
YKARGAGV	binds
YKARGAGA	binds
VKARGSVD	binds
VKARGSVA	binds
SKAGGAGA	binds
FKAGGSGA	binds
VKAGGDVY	no binding
YKAGDSVA	no binding
YKAEDVGD	binds
YKARGAAY	binds
YKARGAAD	binds
AGGTSYSV	no binding
VGRGNVGV	binds
YKAGGSGV	binds
AKEADDVA	no binding
DKEGGSAD	no binding
VKAGGDSD	no binding
YKAKGALD	binds

Variant	non-specific binding call
FKARGALV	binds
YKAGDVSV	binds
VKAGGDAV	no binding
VGGTSDGA	no binding
VGGTSDGD	no binding
VGGTSDGV	no binding
VGRATVGS	binds
YGTATFLV	binds
YKAGGFWF	binds
YKAGDAAA	binds
AKAGGASD	binds
VKATAVAV	binds
DGGTNSSA	no binding
YGKGTSGF	no binding
DGRGDALS	no binding
YKAKGAGD	binds
VKARSAGV	binds
SKAGGSAD	binds
VKARGAAV	binds
VKAKDAGY	binds
SKAKGAWD	binds
SKAKGAWS	binds
DGRGNSGD	no binding
VKEADAWV	no binding

Variant	non-specific binding call
VKAGGSLY	binds
SKAGGVGA	binds
DKEGGSLD	no binding
DKEGGSLV	no binding
SKAGGDVD	no binding
DGTKSYGV	binds
FGRGSSWA	no binding
FKATTVVD chain 1 S88F	binds
DKEGGDGV	no binding
DKEGGDGY	no binding
DKEGGDGA	no binding
VGGTSSLD	no binding
VKARNDLV	no binding
VKAGDSGA	no binding
VGTKGSSA	no binding
DGTGGSGA chain 1 R67H	no binding
YKAGGYSD	binds
FKAGSSGV	binds
YKAGGSAS	binds
VKARGAGS	binds
VKARGAGV	binds
DKAGGAGV	no binding
DGGTNDGA	no binding
SGREGDWD	binds

Variant	non-specific binding call
VGRTSFGF	binds
VGGTSDVA	no binding
VGGTSDVV	no binding
VGGTSDVF	no binding
YKARGSAA	binds
AGRGADLS	no binding
VKARGSGV	binds
VKARGSGA	binds
VKARGSGD	binds
YGTRSYGV	binds
VGGTSDWA	no binding
VKAGDDVA	no binding
FKARGASV	binds
VKEGGSAD	binds
FKEGNSLD	no binding
VKAKGAAA	binds
YKAGDDGA	no binding
AKATADVD	binds
FGTKGAWD	binds
SGKKAVWV	binds
SGTADSSS	binds
DGKEGYWA	binds
FKARDSSA	binds
FGRRTYGD	binds

Variant	non-specific binding call
DKEGGDAV	no binding
DKEGGDAS	no binding
VKEADDVA	no binding
SGTKGYWD	binds
YKEEDDAV	no binding
YGGTSYSV	no binding
YKARGSGS	binds
YKARGSGA	binds
DKATGDAY	no binding
YKEKGDGA	no binding
YKARTSSS	binds
VGGTSSAD	no binding
VKAGDAAV	no binding
DGTGGAGA	no binding
DKEGGYSV	no binding
YKAKGAAD	binds
YKAKGAAA	binds
YGKRDASY	binds
SKAKGSGA	binds
SKAKGSGV	binds
FKARGSGV	binds
YKEEDSLD	no binding
SGKKSSGV	binds
SKAKGSSD	binds

Variant	non-specific binding call
YKAGGFGA	binds
YKAGDSSD	no binding
DKAGGDGS	no binding
YGRRGFSV	binds
VGKGDDAA	no binding
YKARGALS	binds
VKAGASAD	binds
AKAADSSD	binds
YKARGSWD	binds
YKAKGSAV	binds
DKAKGDGS	no binding
VKEGGDVA	no binding
VKEGGDVV	no binding
VKAASAVY	no binding
SKAGDAWD	binds
SKAGDAWY	binds
YKEGGAGD	no binding
VKEKGAWY	binds
VKEKGAWV	binds
VKEKGAWS	no binding
DKEEADGV	no binding
FGKEDSVD	binds
YGTRSAAD	no binding
YKEGAYAD	binds

Variant	non-specific binding call
YKEKGAVD	binds
YKARGAVY	binds
DKEGGSSS	no binding
DKEGGSSA	no binding
AGTRSFGY	binds
VKEGGDGA	no binding
SKAGSDVA	no binding
YGRTSAAV	binds
DGGTNDVA	no binding
DGGTNDVD	no binding
SKEAGYSV	binds
VGGTSALD	no binding
VGTKGAGF	binds
FKARGSVD	binds
SKAKGFGV	binds
SKAENAWV	binds
VKAGGAGS chain 1 G44D	binds
FKAKGAWD	binds
SGRGNAAD	no binding
DKEEDSLA	no binding
YKAGGSLF	binds
VKARGSLA	binds
DGGTNAGD	no binding
SKAGGALD	binds

Variant	non-specific binding call
SGRGNSGV	no binding
YKEGDSGV chain 1 R87K	no binding
SGRGNDGV	no binding
AGKGGFAY	binds
FKAGGAVA	binds
VKARGSAV	binds
VKARGSAF	binds
VKAGDSSS	no binding
VKEGGAVV	no binding
VKAGGDGS	no binding
SGRGNALD	no binding
VGGTSSGA	no binding
FGKGGFGY	binds
SGGTGDVF	no binding
YGKGGDLA	binds
SKAKGSAA	binds
YKARGSSS	binds
SKEGGVGV	binds
YKARGAWS	binds
YKARGAWD	binds
YKARGAWA	binds
VKAAGSVD	binds
VGGTGSGY	no binding
VGGTGSGA	no binding

Variant	non-specific binding call
VKEKGALD	binds
YKAGDAGD	no binding
VKAGSDVA	no binding
VGTKGDAA	no binding
DKEGGDLA	no binding
YGTAAFGF	binds
YKAKGASV	binds
FKEAGAVY	binds
FGRRGAGV	binds
FKAEAFSF	binds
DKEGGAAA	no binding
DKEGGAAV	no binding
DKEGGAAD	no binding
VGRGNSGD	no binding
AGTKADVV chain 1 G108S	no binding
YKAGGAWD	binds
DKEGGAVV	no binding
FKATTSGA	binds
SGREGDSA	no binding
YKARSALF	binds
YKEGGSGD	no binding
